These results are taken from patent US20040175799.

Data set [1] concerns the target Muscle acetone powder, chicken breast.
Data set [2] concerns the target T1, RNase A, bovine pancreas, P61823.
T1 chain: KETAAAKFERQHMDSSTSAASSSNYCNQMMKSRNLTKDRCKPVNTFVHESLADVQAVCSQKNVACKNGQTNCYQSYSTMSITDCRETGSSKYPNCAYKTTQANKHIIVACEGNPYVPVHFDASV

Data set [3] addresses Aprotinin, bovine lung, P00974.
Data set [4] addresses T2, α-Lactoalbumin, bovine milk, P00711.
T2 chain: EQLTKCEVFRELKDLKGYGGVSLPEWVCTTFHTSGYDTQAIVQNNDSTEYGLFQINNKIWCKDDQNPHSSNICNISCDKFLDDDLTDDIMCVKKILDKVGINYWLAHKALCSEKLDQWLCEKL

For data set [5], the target named is T3, Ovalbumin, chichen egg, P01012.
T3 chain: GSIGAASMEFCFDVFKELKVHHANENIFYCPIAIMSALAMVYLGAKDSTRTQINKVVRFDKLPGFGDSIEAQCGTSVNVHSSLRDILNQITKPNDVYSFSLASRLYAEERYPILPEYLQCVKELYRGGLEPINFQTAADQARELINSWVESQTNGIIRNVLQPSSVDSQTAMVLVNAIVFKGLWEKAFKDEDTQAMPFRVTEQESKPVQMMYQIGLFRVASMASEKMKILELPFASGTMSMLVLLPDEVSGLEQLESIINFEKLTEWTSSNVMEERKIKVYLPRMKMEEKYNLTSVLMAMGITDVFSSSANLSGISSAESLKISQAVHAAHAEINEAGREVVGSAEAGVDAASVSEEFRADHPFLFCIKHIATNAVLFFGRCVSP

For data set [6], the target named is Bovine serum albumin, bovine, P02769.
In data set [7] the target is T4, β-Lactoglobulin, bovine milk, P02754.
T4 chain: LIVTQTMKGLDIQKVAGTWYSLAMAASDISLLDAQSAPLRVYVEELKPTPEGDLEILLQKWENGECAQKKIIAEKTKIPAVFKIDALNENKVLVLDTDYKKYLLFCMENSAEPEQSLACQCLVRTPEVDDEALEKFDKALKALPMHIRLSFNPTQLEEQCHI

The target of data set [8] is Actin, bovine muscle, P68138.
The target in data set [9] is T5, β-Casein, bovine milk, P02666.
T5 chain: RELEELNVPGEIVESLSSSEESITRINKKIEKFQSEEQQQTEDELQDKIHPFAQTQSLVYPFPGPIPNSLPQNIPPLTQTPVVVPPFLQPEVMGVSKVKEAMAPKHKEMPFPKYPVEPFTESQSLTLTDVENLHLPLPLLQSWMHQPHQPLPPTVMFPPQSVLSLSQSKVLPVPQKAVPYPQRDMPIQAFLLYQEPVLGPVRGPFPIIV

The target of data set [10] is Collagen, Type I, bovine Achilles tendon, P02453.
Data set [11] concerns the target T6, Myoglobin, horse skeletal muscle, P68082.
T6 chain: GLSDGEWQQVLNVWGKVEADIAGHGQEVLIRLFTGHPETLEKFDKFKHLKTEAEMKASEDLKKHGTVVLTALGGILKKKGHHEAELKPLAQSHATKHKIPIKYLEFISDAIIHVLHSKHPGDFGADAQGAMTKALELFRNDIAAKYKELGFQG

Data set [12] addresses α-Chymotrypsinogen A, bovine pancreas, P00766.
Data set [13] concerns the target Gelatin, Type B, bovine skin.

Sequence of Bovine serum albumin, bovine, P02769 (P02769 25-607): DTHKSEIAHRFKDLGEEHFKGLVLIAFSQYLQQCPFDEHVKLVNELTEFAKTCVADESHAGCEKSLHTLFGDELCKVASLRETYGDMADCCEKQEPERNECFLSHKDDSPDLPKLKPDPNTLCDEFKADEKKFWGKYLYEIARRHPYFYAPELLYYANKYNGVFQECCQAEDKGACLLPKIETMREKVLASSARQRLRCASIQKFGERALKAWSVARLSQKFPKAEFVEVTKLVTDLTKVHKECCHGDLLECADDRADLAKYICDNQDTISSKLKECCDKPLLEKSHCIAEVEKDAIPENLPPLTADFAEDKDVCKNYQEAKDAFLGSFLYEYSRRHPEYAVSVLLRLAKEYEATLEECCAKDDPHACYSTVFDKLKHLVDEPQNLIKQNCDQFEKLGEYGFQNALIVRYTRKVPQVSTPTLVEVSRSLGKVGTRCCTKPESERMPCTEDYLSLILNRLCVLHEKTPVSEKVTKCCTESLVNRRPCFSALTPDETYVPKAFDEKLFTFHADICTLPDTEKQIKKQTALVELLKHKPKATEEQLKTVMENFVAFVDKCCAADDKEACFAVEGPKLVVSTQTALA
Sequence of Collagen, Type I, bovine Achilles tendon, P02453 (P02453 162-1217, chain 1 of 2): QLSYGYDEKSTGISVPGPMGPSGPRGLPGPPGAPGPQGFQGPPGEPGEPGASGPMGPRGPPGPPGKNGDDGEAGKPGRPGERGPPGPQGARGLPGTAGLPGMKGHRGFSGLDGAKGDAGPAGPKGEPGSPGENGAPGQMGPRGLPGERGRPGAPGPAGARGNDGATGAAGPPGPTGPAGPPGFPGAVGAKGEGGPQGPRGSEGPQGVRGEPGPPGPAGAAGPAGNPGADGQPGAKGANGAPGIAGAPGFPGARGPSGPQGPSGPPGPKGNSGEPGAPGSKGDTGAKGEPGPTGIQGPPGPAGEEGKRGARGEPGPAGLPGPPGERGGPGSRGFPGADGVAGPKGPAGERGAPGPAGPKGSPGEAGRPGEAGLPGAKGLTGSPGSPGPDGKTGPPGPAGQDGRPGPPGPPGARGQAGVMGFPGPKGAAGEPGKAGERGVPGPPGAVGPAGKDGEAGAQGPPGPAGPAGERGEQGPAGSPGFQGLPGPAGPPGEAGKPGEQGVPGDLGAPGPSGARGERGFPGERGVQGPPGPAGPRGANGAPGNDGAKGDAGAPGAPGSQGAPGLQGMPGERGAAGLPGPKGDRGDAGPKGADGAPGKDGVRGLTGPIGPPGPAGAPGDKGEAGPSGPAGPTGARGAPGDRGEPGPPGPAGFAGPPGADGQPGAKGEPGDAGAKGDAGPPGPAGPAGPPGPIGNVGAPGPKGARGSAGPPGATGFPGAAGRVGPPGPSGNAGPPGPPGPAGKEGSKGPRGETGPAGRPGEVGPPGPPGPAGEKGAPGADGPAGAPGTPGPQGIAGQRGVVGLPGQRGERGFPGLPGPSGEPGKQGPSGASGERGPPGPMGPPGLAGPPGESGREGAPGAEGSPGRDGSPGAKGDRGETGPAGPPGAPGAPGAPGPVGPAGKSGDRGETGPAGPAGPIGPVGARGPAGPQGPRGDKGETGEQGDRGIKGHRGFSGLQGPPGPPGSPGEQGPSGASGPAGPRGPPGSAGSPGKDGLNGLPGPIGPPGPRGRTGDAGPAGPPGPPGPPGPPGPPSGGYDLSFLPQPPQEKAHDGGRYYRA
Sequence of Collagen, Type I, bovine Achilles tendon, P02453 (P02453 other isoform, or with tags, fused parts or gaps, chain 2 of 2): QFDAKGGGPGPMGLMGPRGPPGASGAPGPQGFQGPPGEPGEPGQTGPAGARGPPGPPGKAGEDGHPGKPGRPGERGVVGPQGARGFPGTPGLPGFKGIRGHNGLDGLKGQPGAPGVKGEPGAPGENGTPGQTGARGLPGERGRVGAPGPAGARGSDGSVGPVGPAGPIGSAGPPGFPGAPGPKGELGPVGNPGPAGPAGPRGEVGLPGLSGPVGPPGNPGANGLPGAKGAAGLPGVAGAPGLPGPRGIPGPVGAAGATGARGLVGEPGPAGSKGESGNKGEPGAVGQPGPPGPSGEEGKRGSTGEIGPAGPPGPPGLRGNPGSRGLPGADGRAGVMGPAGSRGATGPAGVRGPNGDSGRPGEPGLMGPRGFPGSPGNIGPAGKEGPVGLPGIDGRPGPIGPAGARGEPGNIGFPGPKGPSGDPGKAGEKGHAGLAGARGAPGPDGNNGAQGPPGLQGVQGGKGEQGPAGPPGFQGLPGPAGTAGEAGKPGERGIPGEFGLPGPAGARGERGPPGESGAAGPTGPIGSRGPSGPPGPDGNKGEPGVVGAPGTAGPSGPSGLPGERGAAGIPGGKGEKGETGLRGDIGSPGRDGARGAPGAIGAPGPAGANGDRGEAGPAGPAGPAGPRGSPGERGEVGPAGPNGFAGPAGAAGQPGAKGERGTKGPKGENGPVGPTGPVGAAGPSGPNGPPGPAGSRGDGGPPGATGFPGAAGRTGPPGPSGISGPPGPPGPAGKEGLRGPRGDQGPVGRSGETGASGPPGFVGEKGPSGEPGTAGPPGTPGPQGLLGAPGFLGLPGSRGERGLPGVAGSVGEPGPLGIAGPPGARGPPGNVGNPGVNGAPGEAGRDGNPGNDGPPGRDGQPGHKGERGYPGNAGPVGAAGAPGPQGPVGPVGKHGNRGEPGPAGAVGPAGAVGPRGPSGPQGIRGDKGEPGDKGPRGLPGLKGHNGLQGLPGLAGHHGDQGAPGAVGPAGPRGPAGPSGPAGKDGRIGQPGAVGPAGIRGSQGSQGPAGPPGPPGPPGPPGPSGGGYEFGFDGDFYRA

B1: protein-deamidating enzyme purified from Chryseobacterium sp. No. 9670 (protein)
chain: LASVIPDVATLNSLFNQIKNQSCGTSTASSPCITFRYPVDGCYARAHKMRQILMNNGYDCEKQFVYGNLKASTGTCCVAWSYHVAILVSYKNASGVTEKRIIDPSLFSSGPVTDTAWRNACVNTSCGSASVSSYANTAGNVYYRSPSNSYLYDNNLINTNCVLTKFSLLSGCSPSPAPDVSSCGF
In the case of B1, the Ammonia releasing rate in the data set with Soy protein isolate stood at 1.17 µmol/min/mg; in data set [1] it was 0.21 µmol/min/mg; in data set [2], 2.91 µmol/min/mg; in [3], 0.224 µmol/min/mg; in data set [4] it was 0.836 µmol/min/mg; in the data set with α-Casein, bovine milk, 19.1 µmol/min/mg. The Ammonia releasing rate with Gluten, wheat worked out at 7.2 µmol/min/mg; in data set [5], 0.005 µmol/min/mg; in data set [6], 0.009 µmol/min/mg; in data set [7], 0.728 µmol/min/mg; in data set [8], 0.45 µmol/min/mg; in data set [9] it was 18.1 µmol/min/mg. For the same protein, the Ammonia releasing rate in [10] amounted to 0.177 µmol/min/mg; with Gliadin, what (wheat), 5.47 µmol/min/mg; in data set [11] it was 0.014 µmol/min/mg; in [12], 0.65 µmol/min/mg; in [13], 0.696 µmol/min/mg; with Zein, corn it was 0.655 µmol/min/mg. In addition, the deamidation ratio with Gluten, wheat is on record as 74% in wheat gluten; with milk caseinate it was 60% in caseinate; in the data set with albumen protein it was 7% in albumen protein; with soybean protein it was 20% in soybean protein; in the data set with whey protein, 23% in whey protein.
